# Test results as given in US20040115667A1, “Dna-sequences, which code for an apoptosis signal transduction protein” (priority 2000, published 2004).
# Entries after “also recorded” stand apart in the source; their conditions may differ. Peptide text beside a SMILES is read from it. * marks the point of attachment. Cbz = O=C(OCc1ccccc1)*; CH2F = FC*
# B1: 1-203: truncated N-terminal domain of Bcl-rambo; printed 1-203, elsewhere 1-201 (protein, UniProt Q9BXK5 1-201, looked up, fragment)
# chain: MASSSTVPLGFHYETKYVVLSYLGLLSQEKLQEQHLSSPQGVQLDIASQSLDQEILLKVKTEIEEELKSLDKEISEAFTSTGFDRHTSPVFSPANPESSMEDCLAHLGEKVSQELKEPLHKALQMLLSQPVTYQAFRECTLETTVHASGWNKILVPLVLLRQMLLELTRRGQEPLSALLQFGVTYLEDYSAEYIIQQGGWG
# B2: C-terminal BHNo domain (amino acids 205-459): C-terminal domain with BHNo region and membrane anchor; range printed as 205-459, probably 205-485 (protein, UniProt Q9BXK5 205-485, looked up, fragment)
# chain: SLESEEEEYPGITAEDSNDIYILPSDNSGQVSPPESPTVTTSWQSESLPVSLSASQSWHTESLPVSLGPESWQQIAMDPEEVKSLDSNGAGEKSENNSSNSDIVHVEKEEVPEGMEEAAVASVVLPARELQEALPEAPAPLLPHITATSLLGTREPDTEVITVEKSSPATSLFVELDEEEVKAATTEPTEVEEVVPALEPTETLLSEKEINAREESLVEELSPASEKKPVPPSEGKSRLSPAGEMKPMPLSEGKSILLFGGAAAVAILAVAIGVALALRKK
# B3: 205-459 construct: C-terminal domain of Bcl-rambo without the anchor region (amino acids 205-459) (protein, UniProt Q9BXK5 205-459, looked up, fragment)
# chain: SLESEEEEYPGITAEDSNDIYILPSDNSGQVSPPESPTVTTSWQSESLPVSLSASQSWHTESLPVSLGPESWQQIAMDPEEVKSLDSNGAGEKSENNSSNSDIVHVEKEEVPEGMEEAAVASVVLPARELQEALPEAPAPLLPHITATSLLGTREPDTEVITVEKSSPATSLFVELDEEEVKAATTEPTEVEEVVPALEPTETLLSEKEINAREESLVEELSPASEKKPVPPSEGKSRLSPAGEMKPMPLSEGKS
# B4: amino acids 1-223: N-terminal domain of Bcl-rambo with homology to Bcl-2 (protein, UniProt Q9BXK5 1-223, looked up, fragment)
# chain: MASSSTVPLGFHYETKYVVLSYLGLLSQEKLQEQHLSSPQGVQLDIASQSLDQEILLKVKTEIEEELKSLDKEISEAFTSTGFDRHTSPVFSPANPESSMEDCLAHLGEKVSQELKEPLHKALQMLLSQPVTYQAFRECTLETTVHASGWNKILVPLVLLRQMLLELTRRGQEPLSALLQFGVTYLEDYSAEYIIQQGGWGTVFSLESEEEEYPGITAEDSND
# B5: full-length Bcl-rambo: full-length human Bcl-rambo protein, amino acids 1-485, expressed from plasmid (protein, UniProt Q9BXK5 1-485, looked up)
# chain: MASSSTVPLGFHYETKYVVLSYLGLLSQEKLQEQHLSSPQGVQLDIASQSLDQEILLKVKTEIEEELKSLDKEISEAFTSTGFDRHTSPVFSPANPESSMEDCLAHLGEKVSQELKEPLHKALQMLLSQPVTYQAFRECTLETTVHASGWNKILVPLVLLRQMLLELTRRGQEPLSALLQFGVTYLEDYSAEYIIQQGGWGTVFSLESEEEEYPGITAEDSNDIYILPSDNSGQVSPPESPTVTTSWQSESLPVSLSASQSWHTESLPVSLGPESWQQIAMDPEEVKSLDSNGAGEKSENNSSNSDIVHVEKEEVPEGMEEAAVASVVLPARELQEALPEAPAPLLPHITATSLLGTREPDTEVITVEKSSPATSLFVELDEEEVKAATTEPTEVEEVVPALEPTETLLSEKEINAREESLVEELSPASEKKPVPPSEGKSRLSPAGEMKPMPLSEGKSILLFGGAAAVAILAVAIGVALALRKK
# modifications: full-length
# notes: full-length human Bcl-rambo protein, amino acids 1-485, expressed from plasmid
# What was measured:
# [1] = test system: Bcl-rambo-induced cell death (caspase-3 activity) in 293T cells; test: Effect of apoptosis inhibitors on apoptotic activity of full-length Bcl-rambo in 293T cells; format: cell-based, human
# Procedure: The effect of different apoptosis inhibitors on the apoptotic activity of Bcl-rambo is investigated in FIG. 6. For this, 293T cells were transfected for 27 hours (shown in FIG. 6A) with 2 μg of Bcl-rambo expression plasmid and 0.5 μg of expression vectors encoding various apoptosis inhibitors, together with 0.5 μg of β-galactosidase expression vector.
# (§1) 293T cells (3×10^5 cells) were sown on 60 mm culture dishes on the day before the transfection and then transiently cotransfected with 2 μg of Bcl-rambo expression plasmids and 0.2 μg of EGFP expression vector (pEGFP-C1, from Clontech) or with 0.5 μg of pCMV-β-galactosidase expression vector. The postnuclear lyzates were then analyzed with regard to the fluorescence intensity of EGFP, the galactosidase activity and the caspase-3 activity using a peptide substrate (Ac-DEVD-AMC, from Alexis). In order to be able to compare the individual measurements, the caspase-3 activity (measured as the number of times it was increased by the induction) was standardized using the fluorescence intensity of EGFP or the β-galactosidase activity.
# [2] = test system: caspase-3 activity in 293T cells; test: Caspase-3 activity / apoptosis in 293T cells transfected with Bcl-rambo constructs; format: cell-based, human; settings: 2 μg construct, 42 hours; for increase in caspase-3 activity (times increase in activity induced): standardized by EGFP fluorescence
# Procedure: FIG. 5 describes the Bcl-rambo-induced apoptosis which is induced by the C-terminal domain of Bcl-rambo. For this, 293T cells were transfected with 2 μg of various Bcl-rambo constructs, namely mock transfectants, full-length Bcl-rambo (amino acids 1-485), Bcl-rambo without the C-terminal anchor domain (amino acids 1-459), the N-terminal domain of homology with Bcl-2 (amino acids 1-223), the C-terminal domain containing the BHNo region (amino acids 205-485), the C-terminal domain without the anchor region (amino acids 205-459) and, finally, a truncated N-terminal domain (amino acids 1-201). All the abovementioned constructs are depicted diagrammatically in FIG. 5 (right-hand drawing), with the BH regions (BH4 (4), BH3 (3), BH1 (1) and BH2 (2)) and also, if present, the tandem repeats and/or the anchor regions (MA) being shown diagrammatically. The transfection, which took place jointly together with 0.2 μg of an EGFP expression vector, namely pEGFP-C1, lasted for 42 hours. The graph shown in the upper left of FIG. 5 plots the caspase-3 activity (as the times increase in activity induced). The activity in the individual experimental assays was standardized by taking into account the fluorescence intensity of transfected EGFP, i.e. the cotransfection with the EGFP expression vector was used to check the transfection rate in order to ensure that it was possible to compare the results in the different experimental assays.
# It follows from the results of the experiments depicted in FIG. 5 that the BHNo domain (and not, for example, the domain having homology with Bcl-2) is responsible for inducing cell death when Bcl-rambo is overexpressed. […] In the case of all the cell extracts, the strength of the expression of the individual constructs in the transfected cells was checked by Western blot analysis using anti-Flag antibody M2 (lower left-hand diagram in FIG. 5).
# as §1
# [3] = test system: proapoptotic proteins Bax, Bak, Bik, Bid, Bim, Bad and Bcl-rambo; test: Co-immunoprecipitation of Bcl-rambo with proapoptotic proteins of the Bcl-2 family in 293T cells; format: binding; settings: anti-Flag M2 agarose immunoprecipitation, anti-EE blot, also with z-VAD-fmk
# [4] = test system: antiapoptotic proteins (Bcl-2, Bcl-XL, Bcl-w, A1, MCL-1, E1B-19K and BHRF1); test: Co-immunoprecipitation of Bcl-rambo with antiapoptotic proteins of the Bcl-2 family in 293T cells; format: binding; settings: HA-labeled Bcl-rambo with Flag-labeled antiapoptotic protein
# [5] = target: T1, proapoptotic proteins Bax, Bak, Bik, Bid, Bim, Bad and Bcl-rambo (Homo sapiens, UniProt Q9BXK5); test: Co-immunoprecipitation of Bcl-rambo with proapoptotic proteins of the Bcl-2 family in 293T cells; format: binding; settings: co-immunoprecipitation
# T1 construct: expressed in transfected cells; host or cells: 293T cells
molecule,measurement,setting,value
"COC(=O)C[C@H](NC(=O)[C@H](C)NC(=O)[C@@H](NC(=O)OCc1ccccc1)C(C)C)C(=O)CF [z-VAD-fmk, reference compound] (Cbz-Val-Ala-Asp(OMe)-CH2F)",suppression of Bcl-rambo-induced cell death by pancaspase inhibitor,[1]; not depicted in FIG. 6,completely suppressed
"c-IAP2: apoptosis inhibitor of the IAP family, coexpressed",blocking of Bcl-rambo-induced cell death by coexpressed apoptosis inhibitor,"[1]; 293T cells, 27 hours, 2 μg Bcl-rambo plasmid, 0.5 μg inhibitor vector, standardized by β-galactosidase",act as inhibitors; also recorded: inhibitory effect
B1,effect on cell survival / induction of cell death on overexpression,[2],no effect on cell survival rate
B2,increase in caspase-3 activity (times increase in activity induced),[2],approx. 80 fold
B3,effect on cell survival / induction of cell death on overexpression,[2],no longer able to elicit cell death
B4,effect on cell survival / induction of cell death on overexpression,[2],no effect on cell survival rate
same,protein/protein interaction with proapoptotic Bcl-2 family proteins,[3],does not interact with other proteins of the Bcl-2 family
same,interaction with antiapoptotic Bcl-2 family proteins,[4],does not interact with other proteins of the Bcl-2 family
B5,effect on cell survival / induction of cell death on overexpression,[2],marked proapoptotic effect
same,increase in caspase-3 activity (times increase in activity induced),[2],approx. 70 fold
same,homodimer formation,[5],Nor can any homodimers be detected
same,protein/protein interaction with proapoptotic Bcl-2 family proteins,[3],not possible to detect any protein/protein interaction
same,interaction with antiapoptotic Bcl-2 family proteins,[4],not possible to detect any interactions; also recorded: no interactions were observed
